Measured values: US20200247855A1, “THERAPY AND DIAGNOSTICS” (OXFORD UNIVERSITY INNOVATION LIMITED, priority 2017, published 2020)

How the values were obtained:
[1] = molecular target: T1, CCL8_HUMAN (human), P80075; assay: fluorescence polarisation; Kd1, two-site fit; conditions: modification not given
T1 chain: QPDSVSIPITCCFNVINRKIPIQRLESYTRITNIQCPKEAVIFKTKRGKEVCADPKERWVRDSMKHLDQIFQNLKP

[2] = molecular target: T1, CCL8_HUMAN (human), P80075; assay: fluorescence polarisation; Kd2, two-site fit; conditions: modification not given
[3] = molecular target: T1, CCL8_HUMAN (human), P80075; assay: FACS, inhibition of CCL8-647 binding to THP-1 cells; conditions: modification not given
[4] = molecular target: T2, CCL5_HUMAN (human), P13501; assay: BLI; conditions: remark: other sources report otherwise
T2 chain: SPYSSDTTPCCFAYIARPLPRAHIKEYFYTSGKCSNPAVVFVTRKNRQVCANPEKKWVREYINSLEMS

## EDEDYEDFFKPVTAYF [P672_PEP-FITC]
[1]
  Kd: 11.9 nM
[2]
  Kd: 252 nM

## EDEDYEDFFKPVTAYF [P672_PEP (peptide BK1.1)]
[3]
  IC50: 4.9 µM

B1: P974_AMBCA, A0A023FDY8 22-118 (protein)
chain: ENTQQEEQDYDYGTDTCPFPVLANKTNKAKFVGCHQKCNGGDQKLTDGTACYVVERKVWDRMTPMLWYECPLGECKNGVCEDLRKKEDCRKGNGEEK
[4]
  Kd: 160 nM
